Test results: US20080085266A1

Biological target: ICAM-1 (human) (UniProt P05362)
Test: cell-based or functional assay

ICAM-1 (human), sequence (P05362 28-532): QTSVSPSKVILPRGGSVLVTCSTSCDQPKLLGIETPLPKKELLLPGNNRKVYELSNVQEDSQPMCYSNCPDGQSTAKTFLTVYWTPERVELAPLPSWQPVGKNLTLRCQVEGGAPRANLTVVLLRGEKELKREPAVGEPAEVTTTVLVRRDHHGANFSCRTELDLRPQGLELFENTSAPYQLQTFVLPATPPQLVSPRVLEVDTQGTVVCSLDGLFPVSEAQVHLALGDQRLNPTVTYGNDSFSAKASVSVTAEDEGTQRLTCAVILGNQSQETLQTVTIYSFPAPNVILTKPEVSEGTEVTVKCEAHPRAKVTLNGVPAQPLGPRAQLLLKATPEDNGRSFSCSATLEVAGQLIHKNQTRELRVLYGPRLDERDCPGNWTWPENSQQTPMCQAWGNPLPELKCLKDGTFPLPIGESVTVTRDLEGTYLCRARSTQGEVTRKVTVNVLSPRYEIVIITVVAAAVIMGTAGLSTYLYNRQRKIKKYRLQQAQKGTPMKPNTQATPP

CD11a (LFA-1) (from UniProt P20701 26-1170) (receptor)
inhibition of tumor lysis by peptide specific CTLs with anti-CD11a (LFA-1) MAb, tumor cells after IFN-gamma exposure: 60 to 86%
